According to US20040018191A1:

Legend:
[1] = target: soluble IGFR1 (sIGFR1), NSO-expressed recombinant protein encompassing the alpha-subunit and the extracellular domain of the beta-subunit of IGFR1 (human) (UniProt P08069); assay: SPR (Biacore 3000), IGFR1 on CM-5 chip, 25° C.
[2] = target: soluble IGFR1 (sIGFR1), NSO-expressed recombinant protein encompassing the alpha-subunit and the extracellular domain of the beta-subunit of IGFR1 (human) (UniProt P08069); assay: SPR (Biacore 3000), IGFR1 on CM-5 chip, 37° C.
[3] = target: soluble IGFR1 (sIGFR1), NSO-expressed recombinant protein encompassing the alpha-subunit and the extracellular domain of the beta-subunit of IGFR1 (human) (UniProt P08069); assay: SPR (Biacore 3000), IGFR1 on CM-5 chip, 25° C.; 25° C.
[4] = target: soluble IGFR1 (sIGFR1), NSO-expressed recombinant protein encompassing the alpha-subunit and the extracellular domain of the beta-subunit of IGFR1 (human) (UniProt P08069); assay: SPR (Biacore 3000), IGFR1 on CM-5 chip, 25° C.; calculated from koff
[5] = target: soluble IGFR1 (sIGFR1), NSO-expressed recombinant protein encompassing the alpha-subunit and the extracellular domain of the beta-subunit of IGFR1 (human) (UniProt P08069); assay: SPR (Biacore 3000), IGFR1 on CM-5 chip, 37° C.; calculated from koff
[6] = target: soluble IGFR1 (sIGFR1), NSO-expressed recombinant protein encompassing the alpha-subunit and the extracellular domain of the beta-subunit of IGFR1 (human) (UniProt P08069); assay: isotype ELISA on coated soluble IGFR1, detected with HRP-anti-hu kappa
[7] = target: soluble IGFR1 (sIGFR1), NSO-expressed recombinant protein encompassing the alpha-subunit and the extracellular domain of the beta-subunit of IGFR1 (human) (UniProt P08069); assay: isotype ELISA on coated soluble IGFR1, detected with HRP-anti-hu-gamma
[8] = target: soluble IGFR1 (sIGFR1), NSO-expressed recombinant protein encompassing the alpha-subunit and the extracellular domain of the beta-subunit of IGFR1 (human) (UniProt P08069); assay: isotype ELISA on coated soluble IGFR1, detected with HRP-anti-human IgG3

| koff [1] | koff [2] | kon [2] | kon [3] | Half-life [4] | Half-life [5] | ELISA signal (OD415 nm-490 nm) [6] | ELISA signal (OD415 nm-490 nm) [7] | ELISA signal (OD415 nm-490 nm) [8] | kon [1] | Binder |
| --- | --- | --- | --- | --- | --- | --- | --- | --- | --- | --- |
| 2.24e-05 s⁻¹ | 4.01e-05 s⁻¹ | 720000 M⁻¹ s⁻¹ | 500000 M⁻¹ s⁻¹ | 8.6 h | 4.8 h | 1 OD | 1.9 OD | 0.813 OD | – | 15H12 fully human monoclonal anti-IGFR1 antibody (antibody, IgG3, V domains shown) VH: EVQLVQSGGGLVHPGGSLRLSCAASGFTFSSFAMHWVRQAPGKGLEWISVIDTRGATYYADSVKGRFTISRDNAKNSLYLQMNSLRAEDMAVYYCARLGNFYYGMDVWGQGTTVTVSS VL: EIVLTQVPDFQSVTPKEKVTITCRASQSIGSSLHWYQQKPDQSPKLLIKYASQSLSGVPSRFSGSGSGTDFTLTINSLEAEDAAAYYCHQSSRLPHTFGGGTKVEIKR |
| 2.65e-05 s⁻¹ | 4.93e-05 s⁻¹ | 680000 M⁻¹ s⁻¹ | – | 7.27 h | 3.91 h | – | – | – | 400000 M⁻¹ s⁻¹ | 19D12 fully human monoclonal anti-IGFR1 antibody (antibody, V domains shown) VH: EVQLVQSGGGLVHPGGSLRLSCAASGFTFSSFAMHWVRQAPGKGLEWISVIDTRGATYYADSVKGRFTISRDNAKNSLYLQMNSLRAEDMAVYYCARLGNFYYGMDVWGQGTTVTVSS VL: EIVLTQVPDFQSVTPKEKVTITCRASQSIGSSLHWYQQKPDQSPKLLIKYASQSLSGVPSRFSGSGSGTDFTLTINSLEAEDAAAYYCHQSSRLPHTFGGGTKVEIKR |
